The target of assay [1] is T1, purified intact rat GluN1a-GluN2B NMDA receptor (Rattus norvegicus, UniProt P35439;Q00960).
T1 construct: rat GluN1a (GluN1-1a splice variant, without the exon 5-encoded motif); called intact; rat GluN2B; the immunogen and the ELISA antigen
As to the kind of experiment: ELISA; 96-well MaxiSorp plates covered by the GluN1a-GluN2B NMDAR proteins, in the presence of 0.005% LMNG (methods; 0.01% in the results); state of the IgG not told. For orientation: An ELISA detects its analyte on a solid surface through an enzyme-linked reagent.

The target of assay [2] is T2, intact GluN1b-GluN2B NMDA receptor (Rattus norvegicus, strain).
T2 construct: called intact; density seen for ATD, LBD and TMD; rat GluN2B; heterotetramer; Also used here for the functional rows on receptors expressed in oocytes or HEK293 cells from wild-type rat cRNA or cDNA; also called GluN1-1b-GluN2B; GluN1b-2B; source: Sf9 insect cells (EarlyBac), solubilised in 0.5% LMNG, purified (Strep-Tactin Sepharose, Superose 6); copies: 2 + 2
The assay can be described thus: cryo-EM structure; receptor mixed with Fab at 1:3 (w:w), purified on Superose 6; 1 mM glycine and 1 mM glutamate; 0.002% LMNG, 0.1% digitonin. As to conditions: both partners purified.

B1: IgG2, mouse monoclonal antibody against the GluN1-GluN2B NMDA receptor (antibody, V domains shown)
VH: DVKLQESGGGLVQPGGSLKLSCAASGFTFSSYTMSWVRQTPEKRLEWVAYISNGGGGTYYPDTVKGRFTISRDNAKNTLYLQMNSLKEDTAMYYCARPSRGGSSYWYFDVWGAGTTVTVSS
VL: DIQMTQSPSSLSASLGGKVTITCKASQDINKYIAWYQHKPGKGPRLLIHYTSSLQPGIPSRFSGSGSGRDYSFSISNLEPEDIATYYCLQYDNLYTFGGGTKLEIK
notes: the Fab part of the heavy chain is in the crystal structure of Fab2 (PDB 7TE4) and in the cryo-EM models; the light chain is in the crystal structure of Fab2 (PDB 7TE4) and in the cryo-EM models; mouse immunoglobulin-gamma; raised against purified intact rat GluN1a-GluN2B NMDAR; source: hybridoma cell culture supernatant, purified (rProtein-A Sepharose)
In the case of B1, the binding result in assay [1] is recorded as “binds”.

B2: Fab2, antigen-binding fragment of IgG2 (Fab, V domains shown)
VH: DVKLQESGGGLVQPGGSLKLSCAASGFTFSSYTMSWVRQTPEKRLEWVAYISNGGGGTYYPDTVKGRFTISRDNAKNTLYLQMNSLKEDTAMYYCARPSRGGSSYWYFDVWGAGTTVTVSS
VL: DIQMTQSPSSLSASLGGKVTITCKASQDINKYIAWYQHKPGKGPRLLIHYTSSLQPGIPSRFSGSGSGRDYSFSISNLEPEDIATYYCLQYDNLYTFGGGTKLEIK
notes: heavy chain of the crystal structure of Fab2 (PDB 7TE4); as the Fab part of the heavy chain of m1; light chain of the crystal structure of Fab2 (PDB 7TE4); as the light chain of m1; source: papain proteolysis of purified IgG2, Fc removed on rProtein-A Sepharose
As to B2, the “stoichiometry N” value in assay [2] was 2 Fab2 per heterotetrameric channel.

B3: IgG5, mouse monoclonal antibody against the GluN1-GluN2B NMDA receptor (antibody, V domains shown)
VH: DVKLQESGGGSVKLGGSLKLSCVVSGFTFSTYYMSWVRQTPEKRLELVAVINSNGGNTYYPDNVKGRFTISRDNAENTLYLQMSSLKSEDTALYYCARRDYDGFAMDYWGQGTSVTVSS
VL: DIQLTQSPASLAVSLGQRATISCRASQSVSTSRYSYMHWYQHKPGQPPKLLIKYASNLESGVPARFSGSGSGTDFTLNIHPVEEEDTATYYCQHSWENPYTFGGGTKLEIK
notes: the Fab part of the heavy chain is in the crystal structure of GluN1b-GluN2B ATD-Fab5 (PDB 7TE6) and in the cryo-EM models; the light chain is in the crystal structure of GluN1b-GluN2B ATD-Fab5 (PDB 7TE6) and in the cryo-EM models; mouse immunoglobulin-gamma; source: hybridoma cell culture supernatant, purified (rProtein-A Sepharose)
With B3, the binding result in assay [1] was “binds”.

(Values after paper PMC8854693, “Development and characterization of functional antibodies targeting NMDA receptors” (Nature Communications, 2022).)
